Broadly, the Kd is the constant that tells how readily two partners part at equilibrium.

Data on one variant can be found in publication PMC8126939, “The TBC1D31/praja2 complex controls primary ciliogenesis through PKA‐directed OFD1 ubiquitylation” (The EMBO Journal, 2021).

The labels stand for the following.
B1: peptide of the C-terminus segment of TBC1D31 [human] / GST-praja2_(530–570) [modified: fluorescent dye on primary amines (NHS-ester labelling); fluorescent dye on primary amines (NHS-ester labelling)] [human] (parent complex)
chain 1: WDTTGQNLIKKVRNLRQRLTARARHRCQTPHLLAA
chain 2: LDGNNNLEDDSSVSEDLDVDWSLFDGFADGLGVAEAISYVD

Variants of B1 are the subject of the assay. Briefly: microscale thermophoresis (MST); parent: 3.7e+04 nM. (In general: In MST a laser heats a spot of the sample, and binding alters the fluorescence response.)
Regarding chain 1 WDTTGQNLIKKVANLAQRLTARARHRCQTPHLLAA, the equilibrium dissociation constant (Kd) was about 65 µM.
